Conditions in all cases: Homo sapiens
Substrate in data set [1]: Cc1ccc(OCCNc2nc(Nc3cc(C)[nH]n3)cc(C)c2C#N)cn1
Description: Activity at LYN (unknown origin)
Substrate in data set [2]: Cc1ccc(OCCNc2nc(Nc3cc(C)[nH]n3)cc(C)c2C#N)cn1
The source holds these as a separate data set.
Description: Activity at Aurora 2 kinase (unknown origin)

Substrate in data set [3]: Cc1ccc(OCCNc2nc(Nc3cc(C)[nH]n3)cc(C)c2C#N)cn1
Description: Activity at Aurora 1 kinase (unknown origin)
This is another data set of the same source.

Km data for three proteins are collected here from ChEMBL document CHEMBL3871290, “3-Cyano-6-(5-methyl-3-pyrazoloamino) pyridines (Part 2): A dual inhibitor of Aurora kinase and tubulin polymerization” (Bioorg Med Chem Lett, 2016).

B1: Tyrosine-protein kinase Lyn (Homo sapiens), P07948 (protein)
chain: MGCIKSKGKDSLSDDGVDLKTQPVRNTERTIYVRDPTSNKQQRPVPESQLLPGQRFQTKDPEEQGDIVVALYPYDGIHPDDLSFKKGEKMKVLEEHGEWWKAKSLLTKKEGFIPSNYVAKLNTLETEEWFFKDITRKDAERQLLAPGNSAGAFLIRESETLKGSFSLSVRDFDPVHGDVIKHYKIRSLDNGGYYISPRITFPCISDMIKHYQKQADGLCRRLEKACISPKPQKPWDKDAWEIPRESIKLVKRLGAGQFGEVWMGYYNNSTKVAVKTLKPGTMSVQAFLEEANLMKTLQHDKLVRLYAVVTREEPIYIITEYMAKGSLLDFLKSDEGGKVLLPKLIDFSAQIAEGMAYIERKNYIHRDLRAANVLVSESLMCKIADFGLARVIEDNEYTAREGAKFPIKWTAPEAINFGCFTIKSDVWSFGILLYEIVTYGKIPYPGRTNADVMTALSQGYRMPRVENCPDELYDIMKMCWKEKAEERPTFDYLQSVLDDFYTATEGQYQQQP
For B1, the Km (as a rule, the substrate concentration at which the rate is half of its maximum) in data set [1] is 1000 µM.

B2: Aurora kinase A (Homo sapiens), O14965 (protein)
chain: MDRSKENCISGPVKATAPVGGPKRVLVTQQFPCQNPLPVNSGQAQRVLCPSNSSQRIPLQAQKLVSSHKPVQNQKQKQLQATSVPHPVSRPLNNTQKSKQPLPSAPENNPEEELASKQKNEESKKRQWALEDFEIGRPLGKGKFGNVYLAREKQSKFILALKVLFKAQLEKAGVEHQLRREVEIQSHLRHPNILRLYGYFHDATRVYLILEYAPLGTVYRELQKLSKFDEQRTATYITELANALSYCHSKRVIHRDIKPENLLLGSAGELKIADFGWSVHAPSSRRTTLCGTLDYLPPEMIEGRMHDEKVDLWSLGVLCYEFLVGKPPFEANTYQETYKRISRVEFTFPDFVTEGARDLISRLLKHNPSQRPMLREVLEHPWITANSSKPSNCQNKESASKQS
In the case of B2, in data set [2], the Km is 28 µM.

B3: Aurora kinase B (Homo sapiens), Q96GD4 (protein)
chain: MAQKENSYPWPYGRQTAPSGLSTLPQRVLRKEPVTPSALVLMSRSNVQPTAAPGQKVMENSSGTPDILTRHFTIDDFEIGRPLGKGKFGNVYLAREKKSHFIVALKVLFKSQIEKEGVEHQLRREIEIQAHLHHPNILRLYNYFYDRRRIYLILEYAPRGELYKELQKSCTFDEQRTATIMEELADALMYCHGKKVIHRDIKPENLLLGLKGELKIADFGWSVHAPSLRRKTMCGTLDYLPPEMIEGRMHNEKVDLWCIGVLCYELLVGNPPFESASHNETYRRIVKVDLKFPASVPMGAQDLISKLLRHNPSERLPLAQVSAHPWVRANSRRVLPPSALQSVA
For B3, the Km in data set [3] was 30 µM.
